# Experimental data published in patent US20100035280A1 (Chugai, published 2010).
# T1: human desmoglein 3 (DSG3) (human, UniProt P32926 50-999)
# T1 construct: Full-length DSG3 gene stably expressed on CHO DG44 cells (DSG3-DG44) for flow cytometry; also called DSG3-DG44 cells; DSG3-Ba/F3 cells
# T1 sequence: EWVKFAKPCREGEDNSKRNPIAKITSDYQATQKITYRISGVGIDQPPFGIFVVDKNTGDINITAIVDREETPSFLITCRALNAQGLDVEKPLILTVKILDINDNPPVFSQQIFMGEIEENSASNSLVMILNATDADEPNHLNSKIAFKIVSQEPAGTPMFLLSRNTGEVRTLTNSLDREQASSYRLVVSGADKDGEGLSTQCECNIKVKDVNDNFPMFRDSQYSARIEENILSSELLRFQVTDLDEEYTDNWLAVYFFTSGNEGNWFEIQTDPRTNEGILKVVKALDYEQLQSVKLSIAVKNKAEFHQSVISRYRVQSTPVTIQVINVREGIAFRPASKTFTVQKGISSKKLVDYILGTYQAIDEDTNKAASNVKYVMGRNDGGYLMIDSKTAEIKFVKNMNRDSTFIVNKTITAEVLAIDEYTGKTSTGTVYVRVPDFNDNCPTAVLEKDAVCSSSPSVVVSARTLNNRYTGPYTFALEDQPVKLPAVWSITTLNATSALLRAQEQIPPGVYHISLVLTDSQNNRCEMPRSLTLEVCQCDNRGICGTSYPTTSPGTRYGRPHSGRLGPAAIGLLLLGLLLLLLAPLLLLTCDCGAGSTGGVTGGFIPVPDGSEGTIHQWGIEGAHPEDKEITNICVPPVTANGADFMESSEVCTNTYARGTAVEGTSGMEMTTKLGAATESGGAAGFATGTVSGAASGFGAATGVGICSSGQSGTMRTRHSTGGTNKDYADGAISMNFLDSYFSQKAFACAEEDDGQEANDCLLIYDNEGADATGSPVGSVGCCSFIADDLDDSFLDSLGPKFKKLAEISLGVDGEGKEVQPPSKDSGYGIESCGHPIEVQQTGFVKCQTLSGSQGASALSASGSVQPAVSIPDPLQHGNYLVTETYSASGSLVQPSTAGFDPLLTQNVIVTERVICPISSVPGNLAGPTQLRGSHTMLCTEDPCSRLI
# B1: DF366 antibody (antibody, V domains shown)
# VH: EVQLQQSGPELVKPGASVKISCKASGYTFTDYNMDWVKQSHGESLEWIGYIYPNNGGSGYNQKFKSKATLTVDKSSSTAYMELHSLTSEDSAVYYCARRDSYYGFDMAWFAYWGQGTLVTVSA
# VL: DIQMTQSPASLSASVGETVTITCRPSENIYNNLAWYQQKQGKSPQLLVYVATNLAEGVPSRFSGSGSGTRFSLKINSLQPEDFGKYYCQHSYGTPWTFGGGTKLEIK
# notes: Mouse monoclonal antibody purified from hybridoma supernatant; also called anti-DSG3 antibody; anti-human desmoglein 3 antibody
# B2: human IgG1 chimeric DF366 antibody (DF366c) (antibody)
# heavy: not shown
# light: DIQMTQSPASLSASVGETVTITCRPSENIYNNLAWYQQKQGKSPQLLVYVATNLAEGVPSRFSGSGSGTRFSLKINSLQPEDFGKYYCQHSYGTPWTFGGGTKLEIKRTVAAPSVFIFPPSDEQLKSGTASVVCLLNNFYPREAKVQWKVDNALQSGNSQESVTEQDSKDSTYSLSSTLTLSKADYEKHKVYACEVTHQGLSSPVTKSFNRGEC
# notes: Mouse DF366 variable regions on human IgG1/kappa constant regions, made in CHO DG44 cells; The full-length entries may include a signal peptide; also called DF366c antibody
# B3: mouse IgG2a chimeric DF366 antibody (DF366m) (antibody)
# heavy: EVQLQQSGPELVKPGASVKISCKASGYTFTDYNMDWVKQSHGESLEWIGYIYPNNGGSGYNQKFKSKATLTVDKSSSTAYMELHSLTSEDSAVYYCARRDSYYGFDMAWFAYWGQGTLVTVSAAKTTAPSVYPLAPVCGDTTGSSVTLGCLVKGYFPEPVTLTWNSGSLSSGVHTFPAVLQSDLYTLSSSVTVTSSTWPSQSITCNVAHPASSTKVDKKIEPRGPTIKPCPPCKCPAPNLLGGPSVFIFPPKIKDVLMISLSPIVTCVVVDVSEDDPDVQISWFVNNVEVHTAQTQTHREDYNSTLRVVSALPIQHQDWMSGKEFKCKVNNKDLPAPIERTISKPKGSVRAPQVYVLPPPEEEMTKKQVTLTCMVTDFMPEDIYVEWTNNGKTELNYKNTEPVLDSDGSYFMYSKLRVEKKNWVERNSYSCSVVHEGLHNHHTTKSFSRTPGK
# light: DIQMTQSPASLSASVGETVTITCRPSENIYNNLAWYQQKQGKSPQLLVYVATNLAEGVPSRFSGSGSGTRFSLKINSLQPEDFGKYYCQHSYGTPWTFGGGTKLEIKRADAAPTVSIFPPSSEQLTSGGASVVCFLNNFYPKDINVKWKIDGSERQNGVLNSWTDQDSKDSTYSMSSTLTLTKDEYERHNSYTCEATHKTSTSPIVKSFNRNEC
# notes: DF366 variable regions on mouse IgG2a/kappa constant regions, made in CHO DG44 cells; The full-length entries may include a signal peptide; also called DF366m antibody
# Experiments:
# [1] = molecular target: T1, human desmoglein 3 (DSG3); assay: flow cytometry screening on DSG3-DG44 cells
# Protocol: Binding of the DF366 antibody to DSG3-DG44 cells was detected by flow cytometry. 5×10⁴ cells of DSG3-DG44 was reacted with 3 μg/mL of DF366 antibody on ice for 30 minutes, and then washed. Then, this was reacted with an FITC-labeled anti-mouse IgG antibody (Beckman Coulter) as the secondary antibody on ice for 30 minutes, washed, and then subjected to flow cytometry. FACS Calibur (Becton Dickinson) was used as the flow cytometer. The DF366 antibody bound to DSG3-DG44 cells, but not to the parental DG44 cells. Therefore, the DF366 antibody was confirmed to bind specifically to DSG3.
# [2] = molecular target: T1, human desmoglein 3 (DSG3); assay: flow cytometry, 10 µg/mL antibody on DSG3-DG44 CHO cells
# Protocol: (§1) Binding of the DF366c antibody to DSG3-DG44 cells and DG44 cells was detected by flow cytometry. 3×10⁴ cells were reacted with 10 μg/mL of DF366c antibody on ice for one hour, and then washed. Then, this was reacted with an FITC-labeled anti-human IgG antibody (Beckman Coulter) as the secondary antibody on ice for one hour, washed, and then subjected to flow cytometry. FACS Calibur (Becton Dickinson) was used as the flow cytometer. DF366c antibody bound to DSG3-DG44 cells, but not to the parental DG44 cells. Therefore, the DF366c antibody was confirmed to bind specifically to DSG3.
# [3] = molecular target: T1, human desmoglein 3 (DSG3); assay: flow cytometry, FITC anti-mouse IgG secondary antibody
# Protocol: as §1
# The pMCD/G2a-DF366 and pMCN/k-DF366 plasmids were introduced into DG44 cells by electroporation. The CHO DF366m-DG44 cells, which stably express the mouse IgG2a chimeric DF366 antibody (DF366m) were established by selection in a nucleic acid (HT supplement)-free medium containing 500 μg/mL of Geneticin. Subsequently, the DF366m antibody was purified from the culture supernatant of DF366m-DG44 using a Hi Trap Protein G HP column. The solvent was substituted with PBS using a PD-10 column. The concentration of the DF366m antibody purified was quantified using a DC Protein Assay kit. The DF366m antibody was subjected to flow cytometric analysis to confirm that the antibody specifically binds to DSG3 in the same way as the DF366c antibody. […]
binder,measurement,setting,value
B1,binding result,[1],binds
B2,binding result,[2],binds
B3,binding result,[3],binds
